The record followed here is the supplement of paper PMC9170038.

The data set has as its system MS2 coat protein. Nature of the data set: apparent KD of MS2 coat protein; higher = weaker reporter binding. Conditions: Eterna round: R107. On the procedure:
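RNA-MaP round R107: designed RNA switches with theophylline, tryptophan, arginine or FMN aptamers are transcribed on-chip within common flanks. They are titrated with SNAP-549-labelled MS2 coat protein in RNA-MaP buffer (100 mM Tris pH 7.5, 80 mM KCl, 4 mM MgCl2), without ligand or with the indicated ligand. Median apparent KD per design.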

[1] abbreviates: input ligand: theophylline 20 uM.
Setting [2] is: input ligand: theophylline 2 mM.
Setting [3] is: input ligand: tryptophan 2.4 mM.

With “AAAACAAUCUGAAGGAGCGUCACAUGAGGAUCACCCAUGUACAUGAGGAUCACCCAUGUGUGACAGGUAGGUCGCAGAAAAUACC [Exclusion Arginine B GF 3]”, the “apparent KD of MS2 coat protein” value (input ligand: arginine 13.2 mM) amounted to 111 nM; the “apparent KD of MS2 coat protein” value (input ligand: none) was 216 nM; the “apparent KD of MS2 coat protein” value under setting [1] was 183 nM; the “apparent KD of MS2 coat protein” value under setting [2] is 219 nM; the “apparent KD of MS2 coat protein” value under setting [3] was 200 nM.

As to “AAAACACAUGAGGAUCACCCAUGUCAUGAUACCAGUCCACAUGAGGACCCUUGGCAGCAUAAAAUGGGUAACAUGAGGAUAACCC [AstrosEXyTheA#4]”, the “apparent KD of MS2 coat protein” value is 26.5 nM (input ligand: arginine 13.2 mM), 48.1 nM under setting [1] and 23.4 nM under setting [3].

Turning to “AAACAUGAGGAUCACCCAUGUUCAAUAGAUACCAGUGAUACGGUGCACCCUUGGCAGCUGUUGCUGAGUGAUGGUUCCCUCGGUA [#24 SameState-TheophyllineA]”, the “apparent KD of MS2 coat protein” value (input ligand: arginine 13.2 mM) is 19.9 nM, the “apparent KD of MS2 coat protein” value under setting [1] came to 32.9 nM and the “apparent KD of MS2 coat protein” value under setting [3] was found to be 27.1 nM.

Regarding “AAACGUUGCUGCGAUACCAGACAUGAGGAUCACCCAUGUACCAAGGUAAAGAAAUAACGUGUCCCUUGGCAGCGCAGCAACGAAA [MAT - Exclusion Theophlline B - Mod of Eli - D12]”, the “apparent KD of MS2 coat protein” value came out at 8.7 nM (input ligand: arginine 13.2 mM); 10.2 nM (input ligand: none); 16.1 nM under setting [1]; 143 nM under setting [2]; 10.6 nM under setting [3].

As to “AAACUUCGCAUAGGAAAACUAUGUGAAGAUCGAGGACCGGUACGGCCGCCACUCGUCCUCAACAUGAGGAUCACCCAUGUAAUAA [Mat - Exclusion - Trytophan A - D3]”, the “apparent KD of MS2 coat protein” value (input ligand: arginine 13.2 mM) was 22.8 nM, the “apparent KD of MS2 coat protein” value under setting [1] was found to be 23.7 nM and the “apparent KD of MS2 coat protein” value under setting [2] is 23 nM.

Take “AAAGCCUUGCCCGGUGUUCCGAAAGUGGAAGGAGCGCACAUUGGUGCAGGUAGGUCGCCACAUGAGGAUCACCCAUGUCUAGGCU [Isbeat]”: the “apparent KD of MS2 coat protein” value runs as follows: (input ligand: arginine 13.2 mM) 42.5 nM; (input ligand: none) 34.1 nM; under setting [1], 107 nM; under setting [2], 135 nM; under setting [3], 11.3 nM.

With “AAAGGAAGGUAAAAUAAAACUACAUGUGAAGGAGCGCCCGAAAGGGCAGGUAGGUCGCACAUGAGGAUCACCCAUGUCCUUCCAA [ArgEX 6 #SwitchBubble]”, the “apparent KD of MS2 coat protein” value (input ligand: arginine 13.2 mM) worked out at 206 nM; the “apparent KD of MS2 coat protein” value (input ligand: none) was determined as 319 nM; the “apparent KD of MS2 coat protein” value under setting [1] stood at 315 nM; the “apparent KD of MS2 coat protein” value under setting [2] was 439 nM; the “apparent KD of MS2 coat protein” value under setting [3] is 293 nM.

With “AAAUAAAUAACUGAUACCAGUGGACUGACAUGAGGAUCACCCAUGUUGGGUUUUGUUGUCCACCCUUGGCAGCGGGCAUAUAAAA [#25 Exclusion-TheophyllineB]”, the “apparent KD of MS2 coat protein” value runs as follows: (input ligand: arginine 13.2 mM) 23.4 nM; under setting [1], 38.4 nM; under setting [3], 26.8 nM.

“AAAUAAAUACAUGAGGAUCACCCAUGUGAAGGAGCGGCCGUUAGGCCAGGUAGGUCGCACAUGAAAGGGAAGCGAAAGAAAUAAU [MAT - Exclusion Arginine A - Mod of Eli - D7]”: the “apparent KD of MS2 coat protein” value reads like this: (input ligand: arginine 13.2 mM) 12.2 nM; (input ligand: none) 18.1 nM; under setting [1], 25.9 nM; under setting [2], 19 nM; under setting [3], 19.2 nM.

“AACAGUAUUAUAGAUACCAGCAGGUCAUAAGACAUGAGGAUCACCCAUGUGAAUGAGGUAUGCCCUUGGCAGCUAUGAGGUCCUC [theeternabot_sameState_MS2_Theo_B_18]”: the “apparent KD of MS2 coat protein” value runs as follows: (input ligand: arginine 13.2 mM) 113 nM; under setting [1], 185 nM; under setting [3], 126 nM.

With “AACAUGAGGAUCACCCAUGUAUGUUCCGAAGGAGCGCCACAUGAGGCAGGUAGGUCGCGGGUACAUGAGGAUCACCCAUGUGUCA [Exclusion Arginine A 3]”, the “apparent KD of MS2 coat protein” value reads like this: (input ligand: arginine 13.2 mM) 56.5 nM; (input ligand: none) 113 nM; under setting [1], 170 nM; under setting [2], 128 nM; under setting [3], 174 nM.

In the case of “AACAUGAGGAUCACCCAUGUCCCAUGUGAACGAGGACCGGUACGGCCGCCACUCGAAUGAGGCGGCACAUGAGGAUCACCCACAU [whbob_SS_trypto A_2s11]”, the “apparent KD of MS2 coat protein” value is 95.7 nM (input ligand: arginine 13.2 mM), 233 nM under setting [1] and 237 nM under setting [2].

For “AACAUGAGGAUCACCCAUGUCCUCAUGAUUCGAGGACCGGUACGGCCGCCACUCGGUCCUCGCGAGGAGGAGUCAAAGACUCCAA [Omei Trp A SS A v2]”, the “apparent KD of MS2 coat protein” value reads like this: (input ligand: arginine 13.2 mM) 360 nM; under setting [1], 361 nM; under setting [2], 968 nM.

For the sequence “AACAUGAGGAUCACCCAUGUCCUCGUGUUCCGAGGACCGGUACGGCCGCCACUCGGUCCUCGCGAGGAUGGUCAAAGACUAUCCA [Omei Trp A SS B v3]”, the “apparent KD of MS2 coat protein” value is 724 nM (input ligand: arginine 13.2 mM), 378 nM under setting [1] and 953 nM under setting [2].

Regarding “AACAUGAGGAUCACCCAUGUCUGAACUGAAGGAGCGCUAAAUAAGGCAGGUAGGUCGCGGAAUUUUGUGUACAUAUGUAUAUGGG [9.H]”, the “apparent KD of MS2 coat protein” value turned out to be 21.7 nM (input ligand: arginine 13.2 mM); 25.9 nM (input ligand: none); 32.2 nM under setting [1]; 35.8 nM under setting [2]; 23.8 nM under setting [3].

With “AACAUGAGGAUCACCCAUGUGUCCUCGAAACGAGGACCGGUACGGCCGCCACUCGACGUAUGUUGACGAAAAGUCAGCAUACGAA [Mat - Exclusion - Trytophan A - D12]”, the “apparent KD of MS2 coat protein” value is 112 nM (input ligand: arginine 13.2 mM), 310 nM under setting [1] and 330 nM under setting [2].
